Measured values reported in the nanobody polyreactivity screen of Harvey et al. (2022).

Test: yeast display, Sf9 membrane polyspecificity reagent, FACS + sequencing; frameworks hold sequencing errors
How it was run: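 Synthetic nanobody libraries on Saccharomyces cerevisiae BJ5465 were galactose-induced for 36–48 hours, stained 1 hour at 4 °C with 10% biotinylated, detergent-solubilized Sf9 membrane reagent and enriched on streptavidin microbeads. FACS then separated cells into low and high (top ~1%) gates by anti-HA (expression) and streptavidin (reagent binding) fluorescence. Genes were colony-PCR amplified, MiSeq 2 × 250 sequenced and CDR-length filtered. A clone's polyreactivity label is that of its gate of origin.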

| Sequence | polyreactivity (PSR sort gate) |
| --- | --- |
| QVQLVESGGGLVQAGGSLRLSCAASGSTFGRNVMGWYRQAPGKERELVAAISIRGGSTYYADSVKGRFTISRDNAKNTVYLQMNSLKPEDTAVYYCARDYPTDAYDYWGQGTQVTVSS | low polyreactivity |
| QAQLVDSGGGLVQEGGSLRLSCAASGLIFDANVMGSYRQAPGKERELVAAISWSGGRTYYADSVKGRFTISRDNAKNTVFFQMNSMNPEVTAVYYCAADTWPDMHDYWGQGTQVTVSS | low polyreactivity |
| QGQLEESGGGLVQAGGSLRLSCAAAGITFVDYSMGWYRQAPGKEMELVAGINWSGDGTSYADSVKGRFTISRDNAKNTVYLLMNSLKPEDTAVYDCAAYWYYYLMDYWGQGTQVTVSS | low polyreactivity |
| QVQLVESWGGLVQAGGSLRLSCAASGYTFSYYAMGWYRPAPWKERELVAAITSTGSTYYADSVKVRFTISRDNAKNTVYLQMNSLKPEDTAVYYCNVDDATVGPVDYWGQGTQVTVSS | low polyreactivity |
| QVQLVESGGGLVQARGSLRLSCAASGSTFYAYVMGWYRQATGKERELVAAISKGGGSTYYADSVKGRFTISRDNAKNTVYLQMNSLKPEDTAVYYSAAYASYSNYRKYNYWGQGTQVTVSS | high polyreactivity |
| QVQRVESAGGLVQAGGSLRLSCAPTGSIFSTNPMGWYSQSPGTERELVATITWSDGSTYYADSVKGRFTISRDNAKNTVYLQLNSLKPEDTAVYDCATPYKRDFYKGGDYWAQGTQVTVSS | low polyreactivity |
| QDQLVESGGGLVQAGGSLRLSCAASGLIFRIYAMGWYRQAAGKERELVAAITSGGTSTSYADSVKGRFSISRDNAKNTVYLQMNSLKPEDTAVYYCNARWSDRVRIGLDYWGQGTQVTVSS | high polyreactivity |
| QVQLVESGGGLVQAGGSLRLSSAASGLTFPIYAMVWYTQAPGKEREFVAVITTSGGSTYYADSVKGRFTISRDNAKNTVFLQMNSLKPEDTSVYYCNARRIRHYYWGQGTQVTVSS | high polyreactivity |
| QVQLVESGGGLVQAGGSLRLSCAASGSTLFYAMGWYRQAPGKERELVAAISWSGGSTRYADSVKGRFTISRDNAKNTVYLQMNSLKPEDTAVYYCNTYTKHTGYYWKYDYWGQGTQVTVSS | low polyreactivity |
| QVQLVDSGGGLVQAGGSLRLSCAASGFIFPVYTMGWYRQAPGKERELVAAITQIGGSTQYADSVKGRFTISRDNAKNTVYLQMNSLKPEDTAVYYCAVDYDSYWYGTYVNEYVYWGQGTQVTVSS | low polyreactivity |
| QVQLVESGGGLVQAGGSLRLSCAASGSIFVKYAMGWYRQAPGTERELVAAISWSGDSTYYADSVKGRITISRDNAKNTVYLQMNSLIPEDTAVYFCAAYSGYGGVSMYYWGQGTQVTVSS | low polyreactivity |
| QVQLVESGGGLVQAGGSLRLSCAASGSIFWSYAMGWYRQAPGKERELVASISRSTGRTRYADSVKGRFTISRDNAKNTVYLQMNSLKPEDTAVYYCAATRRAGFTTAKFDYWGQGTQVTVSS | high polyreactivity |
| QVQLVESGGGLVQAGGSLRLSCAASGSTFTIYAMGWYRPAPGKERELVAAIDWSGGGTDYADSVKGRFTISRDNAKNTVYLQMNSLKPEDTAVYYCAAETFYDYGGYDYWGQGTQVTVSS | low polyreactivity |
| QVQLVESGGGLVQAGGSLRLSCAASGGIFLYNSMGWYRQAPGKERELVADISSSGITYYADSVKGRFTISRDNAKNTVYLQMNSLNPEDTAVYYCAADSTTRPGLRVYDDYDYWGQGTQVTVSS | low polyreactivity |
| QVQLVESGVGLVQAGGSLRLSCAGSGFNFIANAMGWYRQAPGKERELVAAISDGGSTYYADSVKGRFTISRDNAKNTVYLQMNSLKPEDTAVYYCAKDVTWAGHYDYWGQGTQVTVSS | low polyreactivity |
| QVQLVESGGGLVQAGGSLRLSCAASGRIFHRNAMGWYRQAPGQERELVARITRSGTSTYYADSVKGRFTISRDNAKNTVYLQMNSLKPEDTAVYYCAADNASPSLGEYNYWGQGTQVTVSS | low polyreactivity |
| QVQLVDSAGGLVQSGGSQRLSCAASGSIFHVYPMGCYRQAPGKERELVAAIRRRGGSTYYADSVKGRFTISRDTAKNTVYLQMNSLKPEDTAVYYCAARSVGFYRYDYWGQGTQVTVSS | low polyreactivity |
| QVQLVESVGGLVQAGGSLRLSCAASGFTSWDNDMGWYRQAPGKERELVAAISRGGSTNYADSVKGRFTISRDNAKNTVYLQMNSLKPEDTAVYYCATAAVTPVWYDYWGQGTQVTVSS | low polyreactivity |
| QVHLVESGGGLVQAGGSLRLSSAASGRIFKYYTMGWYRHAPGKERELVASITGTGGSTYYADSVKGRFTISRDNAKNTVYLQMNRLKPEDTAVYYCAARLSVLGGYRGRNAWRFDHWGQGTKVTVSS | high polyreactivity |
| QVQLVESGGGLVQAGGSLRLSCAASGFTFGSNAMGWYRQAPGKERELVAAISSTGSTYYADSVKGRFTISRDNAKNTVYLQMNSLKPEDTAVYYCNADSDTPRYDYWGQGTQVTVSS | low polyreactivity |
| QVQLVESGGGLVQAGGSLRLSCAASGLTFIVYAMGWYRPAPGKERELVADITWSGGSTYYADSLKGRFTISRDNAKNTVYLQMNSLKPEATAVYYCNRQSAKIMDYWGQGTQVTVSS | low polyreactivity |
| QVQLVESCGCLVQAVGSLRLSCAASGRIFGWYAMGWDRQAPVKERELVAAISSARRTYYADSVKGRFTISRDNAKNSVYLQMNSLKPEDTAVSYCAAYYYNDRMYYWGQGNQVTVSS | high polyreactivity |

| Sequence | polyreactivity (PSR sort gate) |
| --- | --- |
| QVQLESGGGLVQAGGRLRLSCAASGSIIDQYVMGWYRQAPGKERELVAAISRGGRTYYADSVKGRFTISRDNAKNTVYLQMNSLKPVDSSVYYCAARSDVRGFDYWGQGTQVTVSS | low polyreactivity |
| QVQLVESGGGLVQAGGSLRLSCAASGLIFSGYAMGWYRQAPGKERELVAAISRGGGRTSYADSVKGRFTISRDNAKNTVYLQMNSLKPEDTAVYYCAKDPRYLRYEHWGQGSQVTVSS | high polyreactivity |
| QVQLVESGGGLVQAGGSLRLSCAASGSTFLYNTMGWSRQAPGKERELVATITSRGDRTYYADSVKGRFPISRENAKNTVYLQMNSLKPEDTADYYCAALLYIRSVGYDYWGQGPQVTVSS | low polyreactivity |
| QVQLVESGGGLVQAGGSLRLSCAASGSTFLKYDMGWYRQAPGKERELVAAISWDGGSTYYADSVKGRFTISRDNAKNTVYLQMNSLKPEDTAVYYCNADYDVYLTIWYYYGEFDYWGQGTQVTVSS | low polyreactivity |
| QVQLVESGGGLVQAGGSLRLSCAASGRIFDLNTMGWYRQAPGKERELVAAISSGGSTYYADSVNGRFTISRDNAKNTVYIQMNSLKPEDTAVYYCADAKIRGYLIRMYWGQRTQVTVSS | low polyreactivity |
| QVHLVESGGGLVQAGGSLRLSCGASGIIFFHYAMGWYRQAPGKERELVAAITWSGGYTYYADSVKGRFTISRDNAKNTVYLQMNSLKPEDTAVYYCNAVLHRRLYDYWGQGTQVTVSS | high polyreactivity |
| QVQLEESRGGLVQAGGSLRLICAASGFTFRQNAMGWYRQAPGKERELVAAISRGGGGTHYADSVKGRFSISRDNAKNTVYLQMNSLKPEDTAVYYCAKRRYPTFVVPVYYWGQGTQVTVSS | high polyreactivity |
| QVQLVESGGGLVQAGGSLRLSCAASGSISVYNAMGWYRQAPGKERELVAAISWSGGRTSYADSVKGRFTISRDNAKITVYLQMNSLKPEDTALYYCAADELTVLWDEDYWGQGTQVTVSS | low polyreactivity |
| QVQLVESGGGLVQAGGSLRLSCAASGYTLYQYAMGWYRPAPVKERELVAAISRRGGSTYYADSVKGRFTISRDNAKNTVYLLMNSLKPEDTAVYYCNNANLYRFWEMDYWGQGTQVSVSS | high polyreactivity |
| QVQLVESGGGLVQAGGSLRLSCAASGRTFGGNSMGWYRQAPGKERELVAAISGSGGSTYYADSVKGRFTISRDNAKNTVYLQMNSLKPEDTAVYYCAKASRKGWRYDSWGQGTQVTVSS | high polyreactivity |
| QVQLVESGGGLVQAGGSLRLSCAASGLTIYHYAMGWYRQAPGKERELVAAISWNGGSTYYADSVKGRFTFSRDNAKNTVYLQMNSLKPEDTAVYYCAVVFNPHRYTGVLAGYDYWGQGTQVTVSS | high polyreactivity |
| QVQLVESGGGLVQAGGSLRLSCAASGRIFAENAMGWYRQAPGKERELVAAISRTGSRTYYADSVKGRFTISRDNAKNTVYLQMNSLKPEDSAVYYCNKVSAQDEFRSRGYWGQGTQVTVSS | high polyreactivity |
| QVQLVVSGGGLVQAGGSLRLSCAASGFTFRYYAMGWYRQAPGKEREMVAAITRGAGSTYYADSVKGRFTITRDNAKNTVYLQMNSLKPEDTAVYYCAAEFFQYYVATPFDPYNYWGQGTQVTVSS | low polyreactivity |
| QGQLVESGGGLVQAGGSLRLSCAASGSIFDLNAMGWYRQAPGKERELVAAISSGGGTYYADSVKGRFTISRDNAKNTVYLQMNCLKPEDTAVYYCNRVTRWTYNYWGQGTQVTVSS | high polyreactivity |
| QVQLVESGGGLVQAGGSLRLSCAASGSTFVRYVMGWYRQAPGKERELVAAISRRGGSTYYADSVKGRFTISRDHAKNTVYLQMNSLKPEDTAVYYCARTVGYRTLLESDSWGQGTQVTVSS | high polyreactivity |
| QVQLVESGGGLVQAGGSGRLSCAASGSIFFAYGMGWYRQATGTERELVAAIPNSGTSTYYADSVKGRFTISRDNAKNSDYLQMNSLKPEDTAVFYCARDNEPDYYSYPYDYWGEGTQVTVSS | low polyreactivity |
| QDQLVESGGGLVQAGGSLRLSCAASGHIISTYAMGWYRPAPGKERQLVASISENGGTTYYADSVKGRFTISRDIAKNTVYLQMYSLKPEDTAVYYCNADAYVYFDDGDYWGQGTQVTVSS | low polyreactivity |
| QVQLVESGGGLVQAGGSLRLSCAASGRTLYGYAMGWYRQAPGKEREFVAAISRSGGRTYYADSVKGRFTISRDNAKNTVYLQMNSLKPEDTAVYYCAARQYQAKQPYGYYPGYGYWGQGTQVTVSS | high polyreactivity |
| QVQLVESGGGLVQAGGSLRLSCAASGLTFTYYAMGWYRQAPGKERELVAAISWSGGSTYYADSVKGRFTISRDKAKNTVYLQMNSLKPEDTAVYYCAAVDPFTPYDRTYTTDGRESDYWGQGTQVTVSS | low polyreactivity |
| QVQLVESGGGLVQAGGSLRLSCAASGSIFITYAMGWYRQAPGKERELVAAIRDSGDRTYYADSVKGRFTISRDNAKNTVYLQMNSLKPEDTAVYFCNARWQEPLKYDYWGQGTQVTVSS | low polyreactivity |
| QVQLVESGGGLVQAGGSLRLSCAASGLTFGSNGMGWYRQAPGKERELVAAISRGGSTSYADSVKGRFTISRDNAKNTVYLQMNSLKPEDTAVYYCAARSYRYSYRYRAFDYWGQGTQVTVSS | high polyreactivity |
